Data as given in publication PMC11480844.

B1: H2-Kb / B16 (parent)
chain 1: QQQVRQSPQSLTVWEGGTTVLTCSYEDSTFNYFPWYQQFPGEGPALLISILSVSDKKEDGRFTTFFNKREKKLSLHIIDSQPGDSATYFCAARGSALGRLHFGAGTQLIVIP
chain 2: EAAVTQSPRSKVAVTGGKVTLSCHQTNNHDYMYWYRQDTGHGLRLIHYSYVADSTEKGDIPDGYKASRPSQENFSLILELASLSQTAVYFCASSDGTNQAPLFGEGTRLSVL
chain 3: not shown
chain 4: IQKTPQIQVYSRHPPENGKPNILNCYVTQFHPPHIEIQMLKNGKKIPKVEMSDMSFSKDWSFYILAHTEFTPTETDTYACRVKHDSMAEPKTVYWDRDM
chain 5: SIINFEKL
B2: H2-Kb / E4 (parent)
chain 1: AQSVTQPDARVTVSEGASLQLRCKYSYSGTPYLFWYVQYPRQGLQLLLKYYSGDPVVQGVNGFEAEFIKSNSSFHLRKASVHWSDSAVYFCAVSAGQGGSAKLIFGEGTKLTVSS
chain 2: GGIITQTPKFLIGQEGQKLTLKCQQNFNHDTMYWYRQDSGKGLRLIYYSITENDLQKGDLSEGYDASREKKSSFSLTVTSAQKNEMAVFLCASSIWGDSYEQYFGPGTRLTVL
chain 3: not shown
chain 4: B1 chain 4
chain 5: SIINFEKL

Variants of: B1
Test: % of reporter cells activated (NFAT-GFP), raw
Settings: with B16; scale: % of reporter cells activated
Also: test concentration or dose not given here.

Point of comparison: chain 5 I2F, ratio to parent 1.2. Against it:
- chain 5 I2H — higher, 1.62
- chain 5 I2A — higher, 1.49
- chain 5 I2G — higher, 1.56
- chain 5 I2D — lower, 1.19
- chain 5 I2E — higher, 1.47
- chain 5 I2C — higher, 1.48
- chain 5 E6V — the same, 1.2
- chain 5 E6D — higher, 1.36
- chain 5 E6C — higher, 2.48
- chain 5 E6I — lower, 0.917
- chain 5 E6S — higher, 1.25
- chain 5 E6G — higher, 1.23
- chain 5 E6Y — lower, 1.02
- chain 5 E6L — higher, 1.21
- chain 5 E6T — higher, 1.4
- chain 5 E6W — lower, 1.05
- chain 5 E6F — higher, 1.48
- chain 5 E6R — higher, 1.29
- chain 5 E6Q — higher, 1.5
- chain 5 E6N — higher, 1.36
- chain 5 E6A — higher, 1.57
- chain 5 E6H — higher, 1.39
- chain 5 E6M — higher, 1.43
- chain 5 E6P — lower, 1.09
- chain 5 E6K — lower, 1.12
- chain 5 F5T — higher, 1.4
- chain 5 F5I — lower, 1.07
- chain 5 F5H — higher, 1.61
- chain 5 F5G — higher, 1.52
- chain 5 F5M — higher, 1.52
- chain 5 F5N — higher, 1.21
- chain 5 F5Y — higher, 1.31
- chain 5 F5E — higher, 1.52
- chain 5 F5L — higher, 1.44
- chain 5 F5S — higher, 1.27
- chain 5 F5D — higher, 1.4
- chain 5 F5R — the same, 1.2
- chain 5 F5P — higher, 1.74
- chain 5 F5A — higher, 1.48
- chain 5 F5W — higher, 1.26
- chain 5 F5K — higher, 1.52
- chain 5 F5V — lower, 0.945
- chain 5 F5Q — higher, 1.39
- chain 5 F5C — higher, 1.46

Variants of: B2
Test: % of reporter cells activated (NFAT-GFP), raw
Settings: with E4

Point of comparison: chain 5 E6L, ratio to parent 0.381. Against it:
- chain 5 L8A — lower, 0.286
- chain 5 L8Y — higher, 0.6
- chain 5 L8K — higher, 0.635
- chain 5 L8H — higher, 0.825
- chain 5 L8T — higher, 0.73
- chain 5 L8P — higher, 0.762
- chain 5 L8S — higher, 0.51
- chain 5 L8N — higher, 0.778
- chain 5 L8Q — higher, 0.524
- chain 5 L8W — higher, 0.762
- chain 5 L8E — higher, 0.619
- chain 5 L8R — higher, 1.29
- chain 5 L8F — higher, 0.427
- chain 5 L8I — lower, 0.286
- chain 5 L8C — higher, 0.46
- chain 5 L8D — higher, 0.444
- chain 5 L8G — higher, 0.746
- chain 5 L8M — the same, 0.381
- chain 5 L8V — higher, 0.603
- chain 5 N4S — higher, 0.714
- chain 5 N4I — higher, 0.873
- chain 5 N4V — higher, 0.825
- chain 5 N4F — higher, 0.635
- chain 5 N4G — higher, 0.698
- chain 5 N4M — higher, 0.968
- chain 5 N4R — higher, 0.905
- chain 5 N4K — higher, 1.1
- chain 5 N4L — higher, 1.02
- chain 5 N4W — lower, 0.286
- chain 5 N4A — higher, 0.889
- chain 5 N4C — higher, 0.921
- chain 5 N4T — higher, 0.635
- chain 5 N4E — higher, 0.603
- chain 5 N4Y — higher, 0.762
- chain 5 N4P — higher, 0.651
- chain 5 N4D — higher, 0.794
- chain 5 N4Q — higher, 0.714
- chain 5 N4H — higher, 1.05
- chain 5 S1D — higher, 0.984
- chain 5 S1T — higher, 0.905
- chain 5 S1W — higher, 0.841
- chain 5 S1L — higher, 0.937
- chain 5 S1I — higher, 0.825
- chain 5 S1F — higher, 0.857
- chain 5 S1V — higher, 0.889
- chain 5 S1A — higher, 0.857
- chain 5 S1E — higher, 0.698
- chain 5 S1Q — higher, 0.889
- chain 5 S1H — higher, 0.841
- chain 5 S1C — higher, 0.952
- chain 5 S1M — higher, 0.857
- chain 5 S1K — higher, 1.24
- chain 5 S1G — higher, 0.937
- chain 5 S1Y — higher, 0.873
- chain 5 S1R — higher, 0.565
- chain 5 S1N — higher, 0.825
- chain 5 S1P — higher, 0.857
- chain 5 I2H — higher, 1.06
- chain 5 I2L — higher, 1.1
- chain 5 I2S — higher, 0.651
- chain 5 I2Q — higher, 0.937
- chain 5 I2E — higher, 0.873
- chain 5 I2K — higher, 0.746
- chain 5 I2P — higher, 0.937
- chain 5 I2D — higher, 0.762
- chain 5 I2R — higher, 0.556
- chain 5 I2T — higher, 0.968
- chain 5 I2N — higher, 1.27
- chain 5 I2G — higher, 0.873
- chain 5 I2F — higher, 0.746
- chain 5 I2Y — higher, 0.825
- chain 5 I2W — higher, 1.11
- chain 5 I2M — higher, 1.14
- chain 5 I2A — higher, 1.43
- chain 5 I2C — higher, 1.19
- chain 5 I2V — higher, 0.921
- chain 5 E6M — higher, 0.54
- chain 5 E6W — higher, 0.635
- chain 5 E6K — higher, 0.873
- chain 5 E6A — higher, 0.635
- chain 5 E6Q — higher, 0.778
- chain 5 E6S — higher, 0.952
- chain 5 E6C — higher, 0.651
- chain 5 E6F — higher, 0.698
- chain 5 E6D — higher, 1.05
- chain 5 E6Y — higher, 1.08
- chain 5 E6T — higher, 0.841
- chain 5 E6H — higher, 1.21
- chain 5 E6I — higher, 0.873
- chain 5 E6R — higher, 0.81
- chain 5 E6V — higher, 1.05
- chain 5 E6P — higher, 0.46
- chain 5 E6G — higher, 0.746
- chain 5 E6N — higher, 0.619
- chain 5 K7T — lower, 0.378
- chain 5 K7S — higher, 0.46
- chain 5 K7R — higher, 0.633
- chain 5 K7G — higher, 0.841
- chain 5 K7N — higher, 0.437
- chain 5 K7A — higher, 0.413
- chain 5 K7C — higher, 1.32
- chain 5 K7Y — higher, 0.425
- chain 5 K7D — higher, 0.444
- chain 5 K7V — higher, 0.841
- chain 5 K7H — higher, 0.905
- chain 5 K7I — higher, 1.29
- chain 5 K7F — higher, 0.49
- chain 5 K7Q — higher, 0.521
- chain 5 K7M — higher, 0.492
- chain 5 K7W — higher, 0.413
- chain 5 K7E — higher, 0.873
- chain 5 K7P — higher, 0.508
- chain 5 K7L — higher, 0.508
- chain 5 I3G — higher, 0.825
- chain 5 I3M — higher, 1
- chain 5 I3H — higher, 0.921
- chain 5 I3D — higher, 0.73
- chain 5 I3W — higher, 0.762
- chain 5 I3S — higher, 0.762
- chain 5 I3T — higher, 0.571
- chain 5 I3Y — higher, 0.508
